Tests used:
Male BL6/J mice [1] = assay: GFBI test model with Sema3a as injury inducer (half-life of Ficoll-FITC); type: in vivo; conditions: Sema3a 0.5 μg/g bodyweight i.v., vs BSA control
Description: (§1) AngII induced GBM damage is a fast and stable trigger method to mimic human hypertensive glomerular disease or its complications. However, a non-hypertensive trigger was required to study the non-hypertensive kidney pathologies. […] For the example at hand, other than described by Tapia R et al, Sema3a was injected i.v. and ACR and GFB integrity were evaluated in the following setup with the following experimental groups. • 1) Male BL6/J mice were injected via tail vein with a mix of Ficoll-FITC 150 mg/kg and BSA (0.5 μg/g of BW), in a maximal volume of 100 μl. • 2) Male BL6/J mice were injected via tail vein with a mix of Ficoll-FITC 150 mg/kg and Sema3a (R&D System, USA), 0.5 μg/g of BW, in a maximal volume of 100 μl.
(§2) The animals went under transcutaneous fluorescent measurement for 2 h, as described before. The GFB integrity test was able to detect the loss of fluorescent dye due to podocyte effacement as well as the increased ACR in the urine. […] This peptide is able to disrupt the ability of the Sema3A to induce the decay of the fluorescent dye. The sensitivity of the GFBI test was evaluated as follows and subjects were pre-treated according to the following groups: • 1. […]

Male BL6/J mice [2] = assay: ACR after Sema3a bolus injection; type: in vivo; conditions: Sema3a 0.5 μg/g bodyweight i.v.; vs BSA control
Description: as §1, §2

[3] = Tapia R et al, KI, 2008; cited from earlier work

B1: Sema3a: recombinant mouse Semaphorin-3A protein (R&D System), non-hypertensive injury inducer (protein, UniProt O08665 21-772, looked up)
Semaphorin-3A: NYANGKNNVPRLKLSYKEMLESNNVITFNGLANSSSYHTFLLDEERSRLYVGAKDHIFSFNLVNIKDFQKIVWPVSYTRRDECKWAGKDILKECANFIKVLEAYNQTHLYACGTGAFHPICTYIEVGHHPEDNIFKLQDSHFENGRGKSPYDPKLLTASLLIDGELYSGTAADFMGRDFAIFRTLGHHHPIRTEQHDSRWLNDPRFISAHLIPESDNPEDDKVYFFFRENAIDGEHSGKATHARIGQICKNDFGGHRSLVNKWTTFLKARLICSVPGPNGIDTHFDELQDVFLMNSKDPKNPIVYGVFTTSSNIFKGSAVCMYSMSDVRRVFLGPYAHRDGPNYQWVPYQGRVPYPRPGTCPSKTFGGFDSTKDLPDDVITFARSHPAMYNPVFPINNRPIMIKTDVNYQFTQIVVDRVDAEDGQYDVMFIGTDVGTVLKVVSVPKETWHDLEEILLEEMTVFREPTTISAMELSTKQQQLYIGSTAGVAQLPLHRCDIYGKACAECCLARDPYCAWDGSSCSRYFPTAKRRTRRQDIRNGDPLTHCSDLQHHDNHHGPSLEERIIYGVENSSTFLECSPKSQRALVYWQFQRRNEDRKEEIRMGDHIIRTEQGLLLRSLQKKDSGNYLCHAVEHGFMQTLLKVTLEVIDTEHLEELLHKDDDGDGSKIKEMSSSMTPSQKVWYRDFMQLINHPNLNTMDEFCEQVWKRDRKQRRQRPGHSQGSSNKWKHMQESKKGRNRRTHEFERAPRSV
- Half-life of fluorescent molecule Ficoll-FITC 2 hrs after Sema3a bolus injection (Male BL6/J mice [1]): significantly decreased half-life
- Half-life of fluorescent molecule Ficoll-FITC 2 hrs after Sema3a bolus injection (Male BL6/J mice [1]; listed as Sema3A): significant decrease in half-life
- ACR after Sema3a bolus injection (Male BL6/J mice [2]): significantly increased ACR
- ACR after injection of recombinant Sema3a [3]: robust, transient ACR within 4-24 h
